# B1: 10H5: mouse monoclonal anti-IGF-1R antibody from hybridoma 10H5.3.4, ATCC PTA-7007 (antibody, V domains shown)
# VH: QVQLQQPGAELVKPGASVTLSCKASGYTFTRFWIHWVKQRPGQGLEWIGEINPSNGRTNYNENFKNKATLTVDTSSSTAYMQLSSLTSEVSVVYYCARGGRLDQWGQGTT
# VL: DIVMTQSQKFMSTSLGDRVSVTCKASQNVGSNVAWYQQKPGQSPEALIYSASYRYSGVPDRFTGSGSGTDFTLTISNVQSEDLAEYFCHQYNNYPYTFGGGTKVEIKR
# B2: 9F2: mouse monoclonal anti-IGF-1R antibody from hybridoma 9F2.6.2, ATCC PTA-7018 (antibody, V domains shown)
# VH: QIQLVQSGPELKKPGETVKISCKASGYTLANYGMNWVKQAPGKGFKWMGWINTNTGKPTYSDEFKGRFVFSLETSASTAYLLINNLSNEDTATYFCARSIYYYGSRYFNVWGAGTT
# VL: DIQMTQSTSSLSASLGDRVTISCRASQDINNYLTWYQQKPDGTVKLLIYYTSRLHSGVPSRFSGSGSGTDYSLTITNLEQEDFATYFCQQGNTLPWTFGEGTKVEIKR
# Key:
# [1] = tested on: KM12; assay: cell viability assay, KM12; type: cell-based, human; design: key: +: growth inhibition; −: no or weak effect; conditions: KM12, Colorectal Adenocarcinoma
# Experimental: The different cell lines were cultured in their respective culture media at 37° C. in a humidified atmosphere of 5% CO2. Subsequently, cells were detached from tissue-culture flasks using the cell-dissociation solution, TRIPLE SELECT™ solution (InVitrogen, Carlsbad, Calif., USA), and centrifuged at 1000 rpm for five minutes. Detached cells were washed once with PBS, counted, and seeded in 96-well plates (Corning, N.Y., USA) at 2000 cells per well in 100 μL of culture media. After an overnight incubation at 37° C. in a humidified atmosphere of 5% CO2, the cell-culture medium was replaced with 50 μL of starvation medium consisting of serum-free RPMI 1640™ medium without phenol red. The cells were then starved for five hours in the incubator before addition of 25 μL of each anti-IGF-1R monoclonal antibody at various dilutions in serum-free RPMI 1640™ phenol red-free media. Later, 25 μL of phenol red-free RPMI 1640™ media supplemented with 4% of fetal bovine serum (FBS) (Sigma) with or without 4 ng/ml of human recombinant IGF-I were added on top of the 50 μL of antibody. The cells were then placed at 37° C. with 5% CO2 for 5 to 6 days. At the end of the assay, cell viability was measured using the […]-GLO® kit according to the manufacturer's instructions (Promega, Madison, Wis., USA).
# [2] = tested on: IGF-1R signaling (phospho-IGF-1R, AKT, ERK1/2); assay: Western blotting of IGF-1R signaling in MCF7 cells; type: cell-based, human; conditions: for inhibition of IGF-I-mediated AKT activation: serum-starved MCF7, IGF-I 50 ng/ml; for inhibition of IGF-II-mediated IGF-1R phosphorylation and downstream AKT and MAPK1/2 activation: serum-starved MCF7, IGF-II 100 ng/ml
# Experimental: Also examined was the effect of these antibodies on ligand-dependent IGF-1R signaling by directly analyzing IGF-1R phosphorylation as well as major downstream pathways, such as AKT and MAPK activation. In this assay, MCF7 cells were grown in 6-well plates and serum was withdrawn for 16 hours. […] The cells were directly lysed in SDS sample buffer, and the lysate was analyzed by Western blotting using antibodies against IGF-1R, phospho-IGF-1R, AKT, phospho-AKT, ERK1/2, phospho-ERK1/2 (also called MAPK1/2 and phospho-MAPK1/2) (all from Cell Signaling Technology, Inc.; Beverly, Mass., USA).
# For the IGF-1R signaling pathway analysis, MCF7 cells were grown in six-well plates for 24 hours and then serum starved (serum-free and phenol-free RPMI medium supplemented with 1 mg/mL BSA) overnight. The cells were first incubated with h10H5 for 20 minutes, then stimulated with 50 ng/mL IGF-1 or 100 ng/mL IGF-11 for ten minutes. Cells were directly lysed in SDS sample buffer to preserve protein phosphorylation. After brief sonication, the lysates were separated by SDS-PAGE and transferred to nitrocellulose membranes (Invitrogen; Carlsbad, Calif.), which were probed with anti-phospho-IGF-1R, AKT, and ERK1/2 antibodies. The same blots were then stripped using Stripping Buffer™ (Pierce Biotechnology; Rockford, Ill.) and re-probed with antibodies against total IGF-1R β, AKT, and ERK1/2.
molecule,measurement,setting,value
B1,"Effect of IR3, 6D2, 9F2, and 10H5",[1],−
same,inhibition of IGF-I-mediated AKT activation,[2],potently prevented AKT activation
same,inhibition of IGF-II-mediated IGF-1R phosphorylation and downstream AKT and MAPK1/2 activation,[2],remained as strong inhibitors
B2,"Effect of IR3, 6D2, 9F2, and 10H5",[1],−
same,inhibition of IGF-I-mediated AKT activation,[2],potently prevented AKT activation
same,inhibition of IGF-II-mediated IGF-1R phosphorylation and downstream AKT and MAPK1/2 activation,[2],remained as strong inhibitors
